B1: FLAG epitope-tagged STAG1, wild type (transient, HEK293) [human] / RAD21 (endogenous, HEK293) [human (endogenous in HEK293)] (parent complex)
chain 1: MITSELPVLQDSTNETTAHSDAGSELEETEVKGKRKRGRPGRPPSTNKKPRKSPGEKSRIEAGIRGAGRGRANGHPQQNGEGEPVTLFEVVKLGKSAMQSVVDDWIESYKQDRDIALLDLINFFIQCSGCRGTVRIEMFRNMQNAEIIRKMTEEFDEDSGDYPLTMPGPQWKKFRSNFCEFIGVLIRQCQYSIIYDEYMMDTVISLLTGLSDSQVRAFRHTSTLAAMKLMTALVNVALNLSIHQDNTQRQYEAERNKMIGKRANERLELLLQKRKELQENQDEIENMMNSIFKGIFVHRYRDAIAEIRAICIEEIGVWMKMYSDAFLNDSYLKYVGWTLHDRQGEVRLKCLKALQSLYTNRELFPKLELFTNRFKDRIVSMTLDKEYDVAVEAIRLVTLILHGSEEALSNEDCENVYHLVYSAHRPVAVAAGEFLHKKLFSRHDPQAEEALAKRRGRNSPNGNLIRMLVLFFLESELHEHAAYLVDSLWESSQELLKDWECMTELLLEEPVQGEEAMSDRQESALIELMVCTIRQAAEAHPPVGRGTGKRVLTAKERKTQIDDRNKLTEHFIITLPMLLSKYSADAEKVANLLQIPQYFDLEIYSTGRMEKHLDALLKQIKFVVEKHVESDVLEACSKTYSILCSEEYTIQNRVDIARSQLIDEFVDRFNHSVEDLLQEGEEADDDDIYNVLSTLKRLTSFHNAHDLTKWDLFGNCYRLLKTGIEHGAMPEQIVVQALQCSHYSILWQLVKITDGSPSKEDLLVLRKTVKSFLAVCQQCLSNVNTPVKEQAFMLLCDLLMIFSHQLMTGGREGLQPLVFNPDTGLQSELLSFVMDHVFIDQDEENQSMEGDEEDEANKIEALHKRRNLLAAFSKLIIYDIVDMHAAADIFKHYMKYYNDYGDIIKETLSKTRQIDKIQCAKTLILSLQQLFNELVQEQGPNLDRTSAHVSGIKELARRFALTFGLDQIKTREAVATLHKDGIEFAFKYQNQKGQEYPPPNLAFLEVLSEFSSKLLRQDKKTVHSYLEKFLTEQMMERREDVWLPLISYRNSLVTGGEDDRMSVNSGSSSSKTSSVRNKKGRPPLHKKRVEDESLDNTWLNRTDTMIQTPGPLPAPQLTSTVLRENSRPMGDQIQEPESEHGSEPDFLHNPQMQISWLGQPKLEDLNRKDRTGMNYMKVRTGVRHAVRGLMEEDAEPIFEDVMMSSRSQLEDMNEEFEDTMVIDLPPSRNRRERAELRPDFFDSAAIIEDDSGFGMPMF
chain 2: MFYAHFVLSKRGPLAKIWLAAHWDKKLTKAHVFECNLESSVESIISPKVKMALRTSGHLLLGVVRIYHRKAKYLLADCNEAFIKIKMAFRPGVVDLPEENREAAYNAITLPEEFHDFDQPLPDLDDIDVAQQFSLNQSRVEEITMREEVGNISILQENDFGDFGMDDREIMREGSAFEDDDMLVSTTTSNLLLESEQSTSNLNEKINHLEYEDQYKDDNFGEGNDGGILDDKLISNNDGGIFDDPPALSEAGVMLPEQPAHDDMDEDDNVSMGGPDSPDSVDPVEPMPTMTDQTTLVPNEEEAFALEPIDITVKETKAKRKRKLIVDSVKELDSKTIRAQLSDYSDIVTTLDLAPPTKKLMMWKETGGVEKLFSLPAQPLWNNRLLKLFTRCLTPLVPEDLRKRRKGGEADNLDEFLKEFENPEVPREDQQQQHQQRDVIDEPIIEEPSRLQESVMEASRTNIDESAMPPPPPQGVKRKAGQIDPEPVMPPQQVEQMEIPPVELPPEEPPNICQLIPELELLPEKEKEKEKEKEDDEEEEDEDASGGDQDQEERRWNKRTQQMLHGLQRALAKTGAESISLLELCRNTNRKQAAAKFYSFLVLKKQQAIELTQEEPYSDIIATPGPRFHII

The variants in the assay derive from B1. As to the kind of experiment: co-immunoprecipitation (anti-FLAG IP), capillary immunodetection assay; HEK293; read off a plot.
Consider chain 1 D797A, for which the ratio to parent was approximately 0.06.

As to chain 1 D797K, the ratio to parent is approximately 0.08.
